According to paper doi:10.1101/2022.02.02.478833 (bioRxiv, 2022):

T1: MOTH domain of human Otoraplin (18-128) (human, UniProt Q9NRC9 18-128, [U-15N]-enriched)
T1 sequence (looked up): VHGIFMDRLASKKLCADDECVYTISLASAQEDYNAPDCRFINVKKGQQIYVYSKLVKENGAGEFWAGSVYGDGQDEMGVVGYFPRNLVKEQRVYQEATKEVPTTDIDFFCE


Legend:
[1] = target: T1, MOTH domain of human Otoraplin (18-128); experiment: NMR titration
[2] = target: human TANGO1 (21-131) cargo-recognition (MOTH) domain (human) (UniProt Q5JRA6); experiment: NMR titration

Kd [1] | koff [1] | Kd [2] | koff [2] | Binder
1.3 mM | 350000 s⁻¹ | – | – | VPPPVPPRRR (peptide, UniProt Q07889 1149-1158, looked up) [class II PPII helix peptide SOS1 (1149-1158)]
– | – | 321 µM | 1100 s⁻¹ | FHNYNVEELLGFLELYNSAA [synthetic peptide of residues 132 to 151 of human TANGO1]
